Reference: PMC12325948, “14-3-3 binding maintains the Parkinson’s associated kinase LRRK2 in an inactive state” (Nature Communications, 2025)
Each block holds one molecule with its values, some of them ahead of it.

Columns and labels:
[1] = target: endogenous 14-3-3 (detected with anti-pan-14-3-3) (UniProt P61981); test: Co-IP
[2] = target: Full-length human LRRK2 (Uniprot Q5S007 with R85H mutation), N-terminal 3X-FLAG, purified (human) (UniProt Q5S007); test: SEC + other: mass photometry; LRRK2 dimers isolated by gel filtration and confirmed by mass photometry
[3] = target: N-terminal His-tagged 14-3-3γ (Uniprot P61981) (UniProt P61981); test: MST; details: parent: est. 210 nM, read off a plot
[4] = target: LRRK2 mutants at the secondary interface (COR residues) in the Co-IP of Fig. 2d; test: co-IP; HEK293FT cells transfected with WT or mutant Flag-tagged LRRK2, FLAG-M2 resin, elution with 3X-FLAG peptide, blot with anti-pan-14-3-3; ratio of endogenous 14-3-3 to LRRK2; in one panel cells treated with MLi-2 or Rebastinib
[5] = target: Flag-tagged LRRK2 WT expressed in HEK293FT cells (human) (UniProt Q5S007); test: as above
[6] = target: Flag-tagged LRRK2 R1728H expressed in HEK293FT cells (human) (UniProt Q5S007); test: as above
[7] = target: Full-length human LRRK2 (Uniprot Q5S007 with R85H mutation), N-terminal 3X-FLAG, purified, Q5S007; test: MST; details: chain shown with the change; right graph; 14-3-3 Variants; parent: est. 210 nM; read off a plot
[8] = target: Purified LRRK2 R1441G (human), Q5S007
[9] = target: Purified LRRK2 R1628P (human), Q5S007
[10] = target: Purified LRRK2 R1728H (human), Q5S007
[11] = target: Purified LRRK2 mutated at the secondary interaction residue N1730 (human), Q5S007
[12] = target: Purified LRRK2 mutated at the secondary interaction residue R1728 (mutant with reduced inhibition) (human), Q5S007
[13] = target: Purified LRRK2 mutated at the secondary interaction residue L1727 (human), Q5S007
[14] = target: the molecule itself; test: cryo-EM structure; LRRK2 monomer fraction at 50 mM NaCl with at least 60-fold molar excess of 14-3-3γ, cross-linked with 1 mM BS3, Superose 6; map at 3.96 Å, local refinement 3.87 Å
[15] = target: Full-length human LRRK2 (Uniprot Q5S007 with R85H mutation), N-terminal 3X-FLAG, purified (human) (UniProt Q5S007); test: as above
[16] = target: Full-length human LRRK2 (Uniprot Q5S007 with R85H mutation), N-terminal 3X-FLAG, purified (human) (UniProt Q5S007); test: SEC-MALS; pre-formed dimeric LRRK2 at 130 nM without and with 14-3-3γ at 1 to 100 times that of LRRK2, Superose 6 Increase 15/150, gel filtration buffer
[17] = target: Purified LRRK2 mutated at the primary interaction residues S910/S935 (human) (UniProt Q5S007)
[18] = target: Full-length human LRRK2 (Uniprot Q5S007 with R85H mutation), N-terminal 3X-FLAG, purified (human) (UniProt Q5S007)
[19] = target: Purified LRRK2 mutants on the LRRK2 side of the COR:14-3-3_(2) interface (MST, Fig. 2e right); test: MST; LRRK2 labelled with RED-NHS 2nd generation at 40 nM, 14-3-3 titrated from a 485 µM stock in 1:2 dilutions, 25 °C for 1 h, 1:1 binding model
[20] = target: Full-length human LRRK2 (Uniprot Q5S007 with R85H mutation), N-terminal 3X-FLAG, purified (human) (UniProt Q5S007); test: as above
[21] = target: Full-length human LRRK2 (Uniprot Q5S007 with R85H mutation), N-terminal 3X-FLAG, purified (human) (UniProt Q5S007); test: MST; as a3 with the type I kinase inhibitor MLi-2 at 2 uM
[22] = left graph, Flag-tagged LRRK2 and endogenous 14-3-3, n = 3, parent: est. 1.0, read off a plot
[23] = in cells, n = 3, parent: est. 1.0, read off a plot
[24] = right graph, Flag-tagged LRRK2 and endogenous 14-3-3, n = 3, parent: est. 1.0, read off a plot

Chain of Full-length human LRRK2 (Uniprot Q5S007 with R85H mutation), N-terminal 3X-FLAG, purified, Q5S007 (Q5S007 other isoform, or with tags, fused parts or gaps R85H): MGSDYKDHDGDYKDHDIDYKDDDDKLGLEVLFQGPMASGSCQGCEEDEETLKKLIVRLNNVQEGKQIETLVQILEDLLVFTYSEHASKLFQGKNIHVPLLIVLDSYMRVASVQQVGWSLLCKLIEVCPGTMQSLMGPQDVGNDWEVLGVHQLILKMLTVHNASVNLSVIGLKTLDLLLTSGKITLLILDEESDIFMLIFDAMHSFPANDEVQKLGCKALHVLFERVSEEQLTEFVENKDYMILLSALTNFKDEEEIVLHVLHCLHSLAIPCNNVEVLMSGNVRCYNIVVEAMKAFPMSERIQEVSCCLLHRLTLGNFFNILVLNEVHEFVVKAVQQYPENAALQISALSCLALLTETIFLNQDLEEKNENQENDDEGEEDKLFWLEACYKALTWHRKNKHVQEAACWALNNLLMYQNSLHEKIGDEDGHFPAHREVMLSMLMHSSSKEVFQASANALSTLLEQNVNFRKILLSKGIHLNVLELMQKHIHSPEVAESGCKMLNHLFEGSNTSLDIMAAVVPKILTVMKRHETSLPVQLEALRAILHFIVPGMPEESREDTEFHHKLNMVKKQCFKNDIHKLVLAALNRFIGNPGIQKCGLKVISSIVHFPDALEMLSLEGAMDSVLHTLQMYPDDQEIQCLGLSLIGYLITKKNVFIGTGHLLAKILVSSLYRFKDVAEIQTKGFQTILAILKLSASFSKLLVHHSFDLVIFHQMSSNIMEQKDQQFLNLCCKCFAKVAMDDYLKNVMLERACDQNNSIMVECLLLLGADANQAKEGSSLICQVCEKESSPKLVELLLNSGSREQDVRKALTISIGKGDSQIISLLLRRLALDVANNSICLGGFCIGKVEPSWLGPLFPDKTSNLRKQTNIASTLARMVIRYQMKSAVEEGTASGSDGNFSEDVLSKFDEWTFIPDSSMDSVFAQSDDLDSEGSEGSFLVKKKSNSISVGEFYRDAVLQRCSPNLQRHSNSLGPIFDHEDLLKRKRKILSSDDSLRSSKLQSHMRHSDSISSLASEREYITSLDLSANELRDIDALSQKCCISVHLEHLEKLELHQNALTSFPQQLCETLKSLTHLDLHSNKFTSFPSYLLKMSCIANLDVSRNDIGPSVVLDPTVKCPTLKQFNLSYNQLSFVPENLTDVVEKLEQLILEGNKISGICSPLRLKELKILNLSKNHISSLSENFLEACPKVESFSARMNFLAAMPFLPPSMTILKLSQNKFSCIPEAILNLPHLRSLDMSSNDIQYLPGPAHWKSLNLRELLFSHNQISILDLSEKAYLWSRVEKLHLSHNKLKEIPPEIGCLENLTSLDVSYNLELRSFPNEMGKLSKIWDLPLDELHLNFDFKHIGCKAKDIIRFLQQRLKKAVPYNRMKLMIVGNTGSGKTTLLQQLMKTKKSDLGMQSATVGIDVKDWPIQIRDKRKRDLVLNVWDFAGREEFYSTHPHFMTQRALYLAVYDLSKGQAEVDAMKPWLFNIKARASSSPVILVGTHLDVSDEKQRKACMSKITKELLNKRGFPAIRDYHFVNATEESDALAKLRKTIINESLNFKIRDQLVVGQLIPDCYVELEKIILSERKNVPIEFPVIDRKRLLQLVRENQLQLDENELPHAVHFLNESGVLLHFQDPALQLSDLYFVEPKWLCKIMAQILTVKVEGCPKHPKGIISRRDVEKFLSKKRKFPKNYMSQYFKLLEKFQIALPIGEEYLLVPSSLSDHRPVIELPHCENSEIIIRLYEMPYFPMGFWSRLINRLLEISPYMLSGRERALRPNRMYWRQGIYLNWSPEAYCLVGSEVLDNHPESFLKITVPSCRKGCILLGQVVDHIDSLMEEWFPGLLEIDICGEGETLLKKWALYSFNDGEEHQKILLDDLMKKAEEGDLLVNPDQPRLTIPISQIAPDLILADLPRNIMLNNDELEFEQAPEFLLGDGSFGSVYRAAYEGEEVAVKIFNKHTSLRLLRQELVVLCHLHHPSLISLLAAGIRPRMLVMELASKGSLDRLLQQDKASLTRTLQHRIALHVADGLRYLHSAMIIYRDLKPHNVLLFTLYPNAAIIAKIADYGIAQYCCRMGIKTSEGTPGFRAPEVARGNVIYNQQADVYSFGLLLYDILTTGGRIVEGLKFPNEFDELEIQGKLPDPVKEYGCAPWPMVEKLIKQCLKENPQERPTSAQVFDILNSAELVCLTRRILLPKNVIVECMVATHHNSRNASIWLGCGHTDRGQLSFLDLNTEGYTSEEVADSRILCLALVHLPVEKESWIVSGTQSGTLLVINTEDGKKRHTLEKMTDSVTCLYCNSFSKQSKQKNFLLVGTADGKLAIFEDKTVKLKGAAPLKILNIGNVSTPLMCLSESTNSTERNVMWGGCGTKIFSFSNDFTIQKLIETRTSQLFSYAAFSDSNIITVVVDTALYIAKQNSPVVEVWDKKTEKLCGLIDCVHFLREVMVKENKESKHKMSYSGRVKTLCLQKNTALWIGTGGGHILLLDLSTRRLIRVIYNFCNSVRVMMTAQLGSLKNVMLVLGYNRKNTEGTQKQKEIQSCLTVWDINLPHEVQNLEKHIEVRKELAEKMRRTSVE
Chain of Purified LRRK2 R1441G (human), Q5S007 (Q5S007 whole entry R1441G): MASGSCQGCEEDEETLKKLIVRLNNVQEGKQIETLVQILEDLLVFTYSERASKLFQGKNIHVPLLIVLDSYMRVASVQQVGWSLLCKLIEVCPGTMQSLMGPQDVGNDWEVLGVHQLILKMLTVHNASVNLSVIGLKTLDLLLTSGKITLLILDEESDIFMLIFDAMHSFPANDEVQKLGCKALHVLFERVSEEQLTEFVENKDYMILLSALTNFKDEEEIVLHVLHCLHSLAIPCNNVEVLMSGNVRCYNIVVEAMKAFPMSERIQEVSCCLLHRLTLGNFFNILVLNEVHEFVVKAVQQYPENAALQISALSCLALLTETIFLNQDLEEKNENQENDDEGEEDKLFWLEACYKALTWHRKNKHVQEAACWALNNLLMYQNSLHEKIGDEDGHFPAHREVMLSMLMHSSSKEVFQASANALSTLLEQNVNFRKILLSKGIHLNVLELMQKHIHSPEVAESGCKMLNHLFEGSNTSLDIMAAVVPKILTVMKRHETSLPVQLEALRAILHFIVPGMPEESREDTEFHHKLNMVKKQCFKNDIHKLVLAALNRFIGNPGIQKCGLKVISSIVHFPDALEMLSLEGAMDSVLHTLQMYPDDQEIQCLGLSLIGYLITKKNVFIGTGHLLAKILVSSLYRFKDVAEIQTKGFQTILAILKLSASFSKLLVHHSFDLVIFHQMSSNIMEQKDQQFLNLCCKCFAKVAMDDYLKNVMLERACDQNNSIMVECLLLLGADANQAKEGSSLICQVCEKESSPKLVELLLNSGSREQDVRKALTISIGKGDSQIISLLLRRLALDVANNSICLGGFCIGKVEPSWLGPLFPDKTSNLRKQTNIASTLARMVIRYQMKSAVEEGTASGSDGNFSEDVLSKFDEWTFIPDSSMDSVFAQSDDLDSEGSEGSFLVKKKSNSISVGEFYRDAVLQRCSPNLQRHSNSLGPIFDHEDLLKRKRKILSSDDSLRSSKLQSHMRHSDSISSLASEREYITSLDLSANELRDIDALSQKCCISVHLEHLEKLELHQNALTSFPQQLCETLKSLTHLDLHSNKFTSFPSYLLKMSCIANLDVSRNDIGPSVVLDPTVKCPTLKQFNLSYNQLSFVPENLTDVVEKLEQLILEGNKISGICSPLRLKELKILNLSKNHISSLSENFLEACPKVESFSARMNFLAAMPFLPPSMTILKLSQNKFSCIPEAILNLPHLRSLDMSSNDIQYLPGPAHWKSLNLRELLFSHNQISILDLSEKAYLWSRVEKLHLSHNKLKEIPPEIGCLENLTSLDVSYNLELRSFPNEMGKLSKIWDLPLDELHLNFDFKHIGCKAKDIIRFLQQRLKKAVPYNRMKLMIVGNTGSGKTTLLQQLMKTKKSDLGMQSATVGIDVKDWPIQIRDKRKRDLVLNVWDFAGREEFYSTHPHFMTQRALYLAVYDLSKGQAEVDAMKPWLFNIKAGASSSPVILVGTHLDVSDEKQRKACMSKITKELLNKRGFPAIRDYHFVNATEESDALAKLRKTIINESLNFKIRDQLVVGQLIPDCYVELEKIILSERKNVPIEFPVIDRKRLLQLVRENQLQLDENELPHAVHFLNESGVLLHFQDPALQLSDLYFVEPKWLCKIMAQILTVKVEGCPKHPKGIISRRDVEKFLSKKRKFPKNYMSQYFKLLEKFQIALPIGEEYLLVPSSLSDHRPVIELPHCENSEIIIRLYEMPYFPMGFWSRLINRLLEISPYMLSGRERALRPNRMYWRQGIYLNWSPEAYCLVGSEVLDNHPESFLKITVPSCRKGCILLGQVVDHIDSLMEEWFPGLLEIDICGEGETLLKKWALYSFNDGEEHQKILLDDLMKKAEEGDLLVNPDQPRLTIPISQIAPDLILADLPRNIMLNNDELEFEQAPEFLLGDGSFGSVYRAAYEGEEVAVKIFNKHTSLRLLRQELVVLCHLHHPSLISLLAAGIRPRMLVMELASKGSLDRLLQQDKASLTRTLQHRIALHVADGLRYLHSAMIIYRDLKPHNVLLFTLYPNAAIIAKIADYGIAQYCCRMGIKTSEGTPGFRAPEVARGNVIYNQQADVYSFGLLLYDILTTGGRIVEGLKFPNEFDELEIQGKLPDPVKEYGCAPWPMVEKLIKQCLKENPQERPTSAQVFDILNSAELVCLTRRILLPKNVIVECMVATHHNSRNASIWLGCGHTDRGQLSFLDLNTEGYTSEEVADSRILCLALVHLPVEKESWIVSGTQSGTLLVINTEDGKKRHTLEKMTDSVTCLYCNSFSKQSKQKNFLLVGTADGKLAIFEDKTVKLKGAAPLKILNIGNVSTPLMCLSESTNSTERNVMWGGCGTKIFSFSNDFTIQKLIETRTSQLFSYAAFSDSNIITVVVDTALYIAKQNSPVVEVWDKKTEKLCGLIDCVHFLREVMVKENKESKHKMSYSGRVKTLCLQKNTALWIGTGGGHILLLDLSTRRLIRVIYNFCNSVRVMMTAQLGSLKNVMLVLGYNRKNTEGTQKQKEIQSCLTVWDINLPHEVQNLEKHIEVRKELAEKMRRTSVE
Chain of Flag-tagged LRRK2 R1728H expressed in HEK293FT cells (human) (Q5S007 whole entry R1728H): as the sequence (Q5S007 whole entry R1441G) above, with G1441R, R1728H counted along it
Chain of Purified LRRK2 R1728H (human), Q5S007 (Q5S007 whole entry R1728H): as the sequence (Q5S007 whole entry R1441G) above, with G1441R, R1728H counted along it

ratio to parent [1, 22]: 0.07
Molecule: Flag-tagged LRRK2 WT expressed in HEK293FT cells, Q5S007 E1632A

ratio to parent [1, 23]: 1.5
Molecule: Flag-tagged LRRK2 WT expressed in HEK293FT cells, Q5S007 G2019S

ratio to parent [1, 22]: 0.11
Molecule: Flag-tagged LRRK2 WT expressed in HEK293FT cells, Q5S007 L1635A

ratio to parent [1, 24]: 0.63
Molecule: Flag-tagged LRRK2 WT expressed in HEK293FT cells, Q5S007 L1727A

ratio to parent [1, 24]: 0.18
Molecule: Flag-tagged LRRK2 WT expressed in HEK293FT cells, Q5S007 N1730A

ratio to parent [1, 23]: 0.07
Molecule: Flag-tagged LRRK2 WT expressed in HEK293FT cells, Q5S007 R1441G

ratio to parent [1, 23]: 1.6
Molecule: Flag-tagged LRRK2 WT expressed in HEK293FT cells, Q5S007 R1628P

ratio to parent ([1]; right graph, Flag-tagged LRRK2 and endogenous 14-3-3, n = 3, marked ns against WT, parent: est. 1.0, read off a plot): 0.98
Molecule: Flag-tagged LRRK2 WT expressed in HEK293FT cells, Q5S007 R1728A

ratio to parent [1, 23]: 0.02
ratio to parent [1, 22]: 0.03
ratio to parent [1, 24]: 0.01
Molecule: Flag-tagged LRRK2 WT expressed in HEK293FT cells, Q5S007 S910A; S935A

ratio to parent [1, 22]: 0.54
Molecule: Flag-tagged LRRK2 WT expressed in HEK293FT cells, Q5S007 S1636A

stoichiometry N [2]: 2
Molecule: Full-length human LRRK2 (Uniprot Q5S007 with R85H mutation), N-terminal 3X-FLAG, purified (from UniProt Q5S007 1-2527) (enzyme)

Kd ([3]; right graph, LRRK2 Variants): 0.47 µM
Molecule: Full-length human LRRK2 (Uniprot Q5S007 with R85H mutation), N-terminal 3X-FLAG, purified, Q5S007 L1727A

Kd ([3]; right graph, LRRK2 Variants): 0.56 µM
Molecule: Full-length human LRRK2 (Uniprot Q5S007 with R85H mutation), N-terminal 3X-FLAG, purified, Q5S007 R1728A

Kd ([3]; left graph, bar labelled S910/S935A): 230 µM
Molecule: Full-length human LRRK2 (Uniprot Q5S007 with R85H mutation), N-terminal 3X-FLAG, purified, Q5S007 S910A; S935A

fold decrease in co-immunoprecipitated 14-3-3 [4]: 2 to 13 fold
percent reduction in binding against WT [4]: 40 to 90%
fold decrease in co-immunoprecipitated 14-3-3 after treatment of the cells with MLi-2 [5]: 7 fold
percent decrease in binding relative to WT [6]: 50%
Molecule: endogenous 14-3-3 (detected with anti-pan-14-3-3) (from UniProt P61981 1-247) (natural protein)

Kd [7]: 0.68 µM
B1: N-terminal His-tagged 14-3-3γ (Uniprot P61981), P61981 Y216A (protein)
chain: MVDREQLVQKARLAEQAERYDDMAAAMKNVTELNEPLSNEERNLLSVAYKNVVGARRSSWRVISSIEQKTSADGNEKKIEMVRAYREKIEKELEAVCQDVLSLLDNYLIKNCSETQYESKVFYLKMKGDYYRYLAEVATGEKRATVVESSEKAYSEAHEISKEHMQPTHPIRLGLALNYSVFYYEIQNAPEQACHLAKTAFDDAIAELDTLNEDSAKDSTLIMQLLRDNLTLWTSDQQDDDGGEGNN

reduction of the 14-3-3 mediated inhibition of LRRK2 kinase activity [8]: 30%
reduction of the inhibition of LRRK2 kinase activity by 14-3-3 compared to WT [9]: 20%
reduction of the inhibition of LRRK2 kinase activity by 14-3-3 compared to WT [10]: 20%
inhibition of Rab10 phosphorylation by LRRK2 in an in vitro kinase assay, 14-3-3 at 300 µM [11]: 25%
inhibition of Rab10 phosphorylation by LRRK2 in an in vitro kinase assay, 14-3-3 at 300 µM [12]: 25%
inhibition of Rab10 phosphorylation by LRRK2 in an in vitro kinase assay, 14-3-3 at 300 µM [13]: 25%
B2: N-terminal His-tagged 14-3-3γ (Uniprot P61981), P61981 1-247 (natural protein)
chain: MVDREQLVQKARLAEQAERYDDMAAAMKNVTELNEPLSNEERNLLSVAYKNVVGARRSSWRVISSIEQKTSADGNEKKIEMVRAYREKIEKELEAVCQDVLSLLDNYLIKNCSETQYESKVFYLKMKGDYYRYLAEVATGEKRATVVESSEKAYSEAHEISKEHMQPTHPIRLGLALNYSVFYYEIQNAPEQACHLAKTAFDDAIAELDTLNEDSYKDSTLIMQLLRDNLTLWTSDQQDDDGGEGNN

Kd [7]: 0.49 µM
B3: N-terminal His-tagged 14-3-3γ (Uniprot P61981), P61981 Q224A (protein)
chain: MVDREQLVQKARLAEQAERYDDMAAAMKNVTELNEPLSNEERNLLSVAYKNVVGARRSSWRVISSIEQKTSADGNEKKIEMVRAYREKIEKELEAVCQDVLSLLDNYLIKNCSETQYESKVFYLKMKGDYYRYLAEVATGEKRATVVESSEKAYSEAHEISKEHMQPTHPIRLGLALNYSVFYYEIQNAPEQACHLAKTAFDDAIAELDTLNEDSYKDSTLIMALLRDNLTLWTSDQQDDDGGEGNN

Kd [7]: 0.64 µM
B4: N-terminal His-tagged 14-3-3γ (Uniprot P61981), P61981 R227A (protein)
chain: MVDREQLVQKARLAEQAERYDDMAAAMKNVTELNEPLSNEERNLLSVAYKNVVGARRSSWRVISSIEQKTSADGNEKKIEMVRAYREKIEKELEAVCQDVLSLLDNYLIKNCSETQYESKVFYLKMKGDYYRYLAEVATGEKRATVVESSEKAYSEAHEISKEHMQPTHPIRLGLALNYSVFYYEIQNAPEQACHLAKTAFDDAIAELDTLNEDSYKDSTLIMQLLADNLTLWTSDQQDDDGGEGNN

stoichiometry N (14-3-3 dimer per LRRK2 monomer) [15]: 1
stoichiometry N (14-3-3γ dimer per LRRK2 dimer) [16]: 1
inhibition of Rab10 phosphorylation by LRRK2 in an in vitro kinase assay, 14-3-3 at 300 µM [17]: 25%
inhibition of Rab10 phosphorylation by LRRK2 in an in vitro kinase assay, 14-3-3 from 0 to 300 µM [18]: 50%
fold increase in KD against the wild-type pair [19]: 2 to 3 fold
Kd [20]: 0.212 µM
fold decrease in binding affinity with MLi-2 against no inhibitor [21]: 2 fold
B5: N-terminal His-tagged 14-3-3γ (Uniprot P61981) (natural protein, human)
chain: MVDREQLVQKARLAEQAERYDDMAAAMKNVTELNEPLSNEERNLLSVAYKNVVGARRSSWRVISSIEQKTSADGNEKKIEMVRAYREKIEKELEAVCQDVLSLLDNYLIKNCSETQYESKVFYLKMKGDYYRYLAEVATGEKRATVVESSEKAYSEAHEISKEHMQPTHPIRLGLALNYSVFYYEIQNAPEQACHLAKTAFDDAIAELDTLNEDSYKDSTLIMQLLRDNLTLWTSDQQDDDGGEGNN
notes: 14-3-3γ, Uniprot P61981; A TEV site follows the His tag; no cleavage is described; also called 14-3-3 gamma; 14-3-3 dimer; source: E. coli BL21*(DE3), purified (Ni-NTA, Superdex 75)
stoichiometry N [14]: 2
